Target: MK-3475-596 (MK-3475 derivatized with fluorescent dye Dylight-596) (Dylight-596 amine-reactive dye, reacts preferentially with the primary amine of lysine residues (sites not given))
Test: FRET between Dylight-488 labelled Ab6 and Dylight-596 labelled MK-3475, recorded for 72 hours (ex 488 nm, em 620 nm)
Protocol: Dylight-488® or Dylight-596® are amine-reactive dyes, which react preferentially with the primary amine of lysine residues. […] Due to the sensitivity of the assay, the molar concentration of the fluorogenic tagged proteins is either 3.2 uM or 800 nM depending on the protein ratio. FRET fluorescence signals are recorded for 72 hours at λₑₘ=620 nm (λₑₓ=488 nm) (FIG. 49).
If protein interaction occurs, we expect to see a growth of the fluorescence signal as a function of time (FIG. 49). The interaction is evaluated by the rate of growth of the fluorescence and the maximum of the fluorescence signal. The absence of interaction (or a reduced interaction) is characterized by i) a low rate of the growth of the fluorescence signal, and ii) a low plateau maximal. […] The fluorescence baseline is measured in the absence of labeled protein.

MK-3475-596 (MK-3475 derivatized with fluorescent dye Dylight-596) (Dylight-596 amine-reactive dye, reacts preferentially with the primary amine of lysine residues (sites not given)), sequence (VH, as listed by the source, chain 1 of 2): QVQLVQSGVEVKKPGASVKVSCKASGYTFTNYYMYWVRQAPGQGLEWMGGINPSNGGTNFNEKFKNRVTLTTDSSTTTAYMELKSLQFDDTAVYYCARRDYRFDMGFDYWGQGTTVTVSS
MK-3475-596 (MK-3475 derivatized with fluorescent dye Dylight-596) (Dylight-596 amine-reactive dye, reacts preferentially with the primary amine of lysine residues (sites not given)), sequence (VL, as listed by the source, chain 2 of 2): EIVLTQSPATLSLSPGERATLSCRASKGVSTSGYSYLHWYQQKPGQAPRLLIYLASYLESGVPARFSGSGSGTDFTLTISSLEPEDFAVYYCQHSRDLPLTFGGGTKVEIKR

binding result: no binding
B1: Ab6-488 (Ab6 derivatized with fluorescent dye Dylight-488) (antibody, human IgG4 S228P, kappa, V domains shown)
VH: QMQLVQSGPEVKKPGTSVKVSCKASGYTFTDYNVDWVRQARGQRLEWIGDINPNDGGTIYAQKFQERVTITVDKSTSTAYMELSSLRSEDTAVYYCARNYRWFGAMDHWGQGTTVTVSS
VL: DIVMTQTPLSLSVTPGQPASISCKASQSLDYEGDSDMNWYLQKPGQPPQLLIYGASNLESGVPDRFSGSGSGTDFTLKISRVEAEDVGVYYCQQSTEDPRTFGGGTKVEIKR
modifications: Dylight-488 amine-reactive dye, reacts preferentially with the primary amine of lysine residues (sites not given)

From patent US20220002410A1 (Merck Sharp & Dohme, published 2022)
